In patent publication US20140134657:

How the values were obtained:
[1] = biological target: T1, PfSUB1 peptide substrate KLVSADNIDIS, tagged with fluorophore and quencher
T1 chain: KLVSADNIDIS

[2] = biological target: T2, PvSUB1 peptide substrate KLVGADDVSLA, tagged with fluorophore and quencher
T2 chain: KLVGADDVSLA

Protein | apparent Km [1] | apparent Km [2]
recombinant Plasmodium falciparum SUB1 (PfSUB1) (protein) MLLVNQSHQGFNKEHTSKMVSAIVLYVLLAAAAHSAFAADLGSKEVRSEENGKIQDDAKKIVSELRFLEKVEDVIEKSNIGGNEVDADENSFNPDTEVPIEEIEEIKMRELKDVKEEKNKNDNHNNNNNNISSSSSSSSNTFGEEKEEVSKKKKKLRLIVSENHATTPSFFQESLLEPDVLSFLESKGNLSNLKNINSMIIELKEDTTDDELISYIKILEEKGALIESDKLVSADNIDISGIKDAIRRGEENIDVNDYKSMLEVENDAEDYDKMFGMFNESHAATSKRKRHSTNERGYDTFSSPSYKTYSKSDYLYDDDNNNNNYYYSHSSNGHNSSSRNSSSSRSRPGKYHFNDEFRNLQWGLDLSRLDETQELINEHQVMSTRICVIDSGIDYNHPDLKDNIELNLKELHGRKGFDDDNNGIVDDIYGANFVNNSGNPMDDNYHGTHVSGIISAIGNNNIGVVGVDVNSKLIICKALDEHKLGRLGDMFKCLDYCISRNAHMINGSFSFDEYSGIFNSSVEYLQRKGILFFVSASNCSHPKSSTPDIRKCDLSINAKYPPILSTVYDNVISVANLKKNDNNNHYSLSINSFYSNKYCQLAAPGTNIYSTAPHNSYRKLNGTSMAAPHVAAIASLIFSINPDLSYKKVIQILKDSIVYLPSLKNMVAWAGYADINKAVNLAIKSKKTYINSNISNKWKKKSRYLHHHHHH | 30.2 µM±3.4 | –
recombinant enzymatically active form of Plasmodium vivax SUB1-Belem (PvSUB1-Belem), following auto-maturation at the KLVGAD//DVSLA site (protein) DVSLASVKDAVRRGESSVNWGKLRSTMLEVPSGESPPSHAASSGSPFDDDDDLLSEAALHREEAHLAGSKTTKGYKFNDEYRNLQWGLDLARLDETQDLINANRVSVTKICVIDSGIDYNHPDLRNNIDVNVKELHGRKGVDDDSNGVVDDVYGANFVNNSGDPMDDNYHGTHVSGIISAVGNNGIGIVGVDGHSKLVICKALDQHKLGRLGDMFKCIDYCISRQAHMINGSFSFDEYSNIFNASVEHLRSLGILFFVSASNCAHDKLSKPDIAKCDLAVNHRYPPILSKTHNNVIAVANLKRDLDESYSLSVNSFYSNIYCQLAAPGTNIYSTTPMNNYRKLNGTSMASPHVAAIASIVRSINPNLTYLQIVEILRNAIVKLPSLTERVSWGGYVDILRAVNLAIDSKAAPYIKSHSWFRWKQGSRRHHHHHH | – | 19.7 µM±1.7
